Results as given in article PMC3350781 (Current Biology, 2011).
One block for each binder: values may come before it.

Target: T1, Wsp1p poly (p)-VCA (residues 129-574 including the polyproline domain and VCA) (S. pombe, UniProt O36027 129-574)
T1 sequence (looked up): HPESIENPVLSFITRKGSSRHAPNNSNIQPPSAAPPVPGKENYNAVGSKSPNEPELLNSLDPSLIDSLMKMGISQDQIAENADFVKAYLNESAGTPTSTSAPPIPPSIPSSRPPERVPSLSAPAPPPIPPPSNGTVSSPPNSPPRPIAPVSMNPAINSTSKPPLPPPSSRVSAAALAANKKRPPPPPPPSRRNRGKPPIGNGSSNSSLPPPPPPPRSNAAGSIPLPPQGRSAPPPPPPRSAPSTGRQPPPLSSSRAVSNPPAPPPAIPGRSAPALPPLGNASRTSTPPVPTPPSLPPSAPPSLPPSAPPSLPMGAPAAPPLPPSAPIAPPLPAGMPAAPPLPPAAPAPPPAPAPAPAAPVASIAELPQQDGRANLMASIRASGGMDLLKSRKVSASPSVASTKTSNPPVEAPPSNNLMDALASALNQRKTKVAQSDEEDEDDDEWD
Assay: pull-down

- Kd: ~2000 nM
B1: GST-Bzz1pSH3 (residues 586-642) (domain or fragment, S. pombe, UniProt Q09746 586-642, looked up)
chain: SSYVKALYAYTAQSDMELSIQEGDIIQVTNRNAGNGWSEGILNGVTGQFPANYVTDV

- Kd: ~100 nM
B2: GST-Bzz1pSH3SH3 (residues 521-642) (domain or fragment, S. pombe, UniProt Q09746 521-642, looked up)
chain: VVLYDFTGEHEGVITASEGQEFTLLEPDDGSGWVRVKIDGTDGLIPASYVKLNDELNTSVTLDGDSSYVKALYAYTAQSDMELSIQEGDIIQVTNRNAGNGWSEGILNGVTGQFPANYVTDV
